Data as given in paper PMC8163841.

Molecular target: Ino80 carrying a C-terminal 2xFlag-tag (S. cerevisiae) (UniProt P53115)
UniProt P53115, sequence (P53115 whole entry): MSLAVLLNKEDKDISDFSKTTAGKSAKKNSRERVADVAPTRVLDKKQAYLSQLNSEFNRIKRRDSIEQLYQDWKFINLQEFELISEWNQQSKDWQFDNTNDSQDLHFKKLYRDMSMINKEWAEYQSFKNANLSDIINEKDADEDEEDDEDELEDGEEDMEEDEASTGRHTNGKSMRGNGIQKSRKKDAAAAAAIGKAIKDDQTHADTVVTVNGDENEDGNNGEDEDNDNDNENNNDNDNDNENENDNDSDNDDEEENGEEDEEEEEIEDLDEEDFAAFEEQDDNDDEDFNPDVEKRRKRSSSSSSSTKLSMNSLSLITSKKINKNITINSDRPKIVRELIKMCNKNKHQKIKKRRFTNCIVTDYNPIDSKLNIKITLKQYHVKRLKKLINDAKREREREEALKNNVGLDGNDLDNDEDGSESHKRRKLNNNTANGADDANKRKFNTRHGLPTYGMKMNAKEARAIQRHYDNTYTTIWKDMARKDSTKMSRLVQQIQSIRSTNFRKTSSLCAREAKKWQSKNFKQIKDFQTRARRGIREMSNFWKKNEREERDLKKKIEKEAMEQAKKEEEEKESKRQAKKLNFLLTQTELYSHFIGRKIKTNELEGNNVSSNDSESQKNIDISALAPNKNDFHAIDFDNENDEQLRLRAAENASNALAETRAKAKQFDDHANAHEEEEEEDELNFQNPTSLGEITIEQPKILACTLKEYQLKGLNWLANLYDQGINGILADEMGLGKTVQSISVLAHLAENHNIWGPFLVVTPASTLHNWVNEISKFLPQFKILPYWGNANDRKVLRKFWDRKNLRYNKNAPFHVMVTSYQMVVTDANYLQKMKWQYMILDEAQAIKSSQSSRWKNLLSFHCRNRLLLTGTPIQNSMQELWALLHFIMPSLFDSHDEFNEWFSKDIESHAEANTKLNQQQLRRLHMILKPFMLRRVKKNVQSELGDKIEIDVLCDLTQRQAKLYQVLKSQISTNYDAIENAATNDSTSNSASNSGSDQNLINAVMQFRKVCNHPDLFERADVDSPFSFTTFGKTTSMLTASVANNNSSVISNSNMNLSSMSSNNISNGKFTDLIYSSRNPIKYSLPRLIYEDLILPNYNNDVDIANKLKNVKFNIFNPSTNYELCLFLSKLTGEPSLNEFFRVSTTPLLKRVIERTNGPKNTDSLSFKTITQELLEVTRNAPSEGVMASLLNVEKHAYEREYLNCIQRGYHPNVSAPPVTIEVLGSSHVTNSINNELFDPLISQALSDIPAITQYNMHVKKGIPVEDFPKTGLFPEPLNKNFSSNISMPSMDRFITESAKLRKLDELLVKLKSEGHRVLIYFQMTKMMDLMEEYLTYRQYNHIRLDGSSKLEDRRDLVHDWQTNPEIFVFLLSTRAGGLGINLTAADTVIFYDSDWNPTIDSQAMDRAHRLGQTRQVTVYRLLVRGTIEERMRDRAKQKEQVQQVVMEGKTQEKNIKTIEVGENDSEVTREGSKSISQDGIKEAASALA

B1: S. cerevisiae Reb1 with a Streptavidin tag at the C terminus (natural protein)
chain: MPSGHNDKNANQESVEEAVLKYVGVGLDHQNHDPQLHTKDLENKHSKKQNIVESSSDVDVNNNDDSNRNEDNNDDSENISALNANESSSNVDHANSNEQHNAVMDWYLRQTAHNQQDDEDDENNNNTDNGNDSNNHFSQSDIVVDDDDDKNKKDAGVGVDDDHQSMAMAAVAAAYTLSKNNNNNNSIANDSNSRKRQHDNGNNHENSQKKRKNNNDDDDRQIGNVDPELTTLGDADDNDTNNDVIDRDQLVHKAIIDADSITQHPDFQQYLNTAADTDDNEKLKHIKDHLMRTHGLNHQNKNHNDDTDDLSNSTKQYSELQKDSMLDSSLNKSRNYMEVLPKVISQDTQPHQQKSPSHDNEAGSVDNSEISQLLQSAATKASSLVSLSSSSATPSTSRSNNSKAFDKAEDAALERFINEYEAIERLTRQQVCERIWSSDRPKDNFWNNIYKVLPYRSSSSIYKHMRRKYHIFEQRGKWTAEEEQELAKLCAEKEGQWAEIGKTLGRMPEDCRDRWRNYVKCGTNRASNRWSVEEEELLKKVISDMLEEAQQQQSQLHPNLLEEEQHLLQDDQNDHRNNDEDDDDTASAAAAAAAAIQEQQQLLQQKQQDDDDAIAAAAAAASSSLGDNKDEDKPHDSLGIQLDDNSQNSMVPAPSATSTHSKSLSNTIRRHNNKLRKSLMGNGKLDFKDIINWTIVSERMGGTRSRIQCRYKWNKLVKREAIAKIQTVKDDDMLWIFEKLRDLGITEDSQVDWDELAALKPGMKLNGLELKLCYERMKKKVKGYKQKSINEISKELVDYFSSNISMKTEN
NADH-based ATPase activity of the WT INO80 complex with yGL167c-NCP601 mononucleosomes, with against without Reb1: 2 fold
